Target: T1, recombinant CD3 epsilon (Homo sapiens (species ; human …, UniProt P07766)
T1 construct: recombinant CD3 epsilon (Sigma-Aldrich); No catalogue number is printed; source: bought: Sigma-Aldrich
Assay: ELISA; indirect ELISA; 0.5 µg recombinant CD3 epsilon coated overnight at 4 °C; 500 µg/ml protein of total cell lysate, periplasmic or cytoplasmic fraction with the scFv, 37 °C 1 h; detected with HRP-conjugated anti-E tag, A405; signals of the negative protein and of BSA-coated wells subtracted
Settings: one partner purified

T1 sequence (P07766 23-126): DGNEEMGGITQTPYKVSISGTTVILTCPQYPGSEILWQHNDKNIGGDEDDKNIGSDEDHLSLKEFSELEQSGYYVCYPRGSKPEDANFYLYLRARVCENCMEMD

B1: human scFv CD3 clone 18 (scFv, V domains shown)
VH: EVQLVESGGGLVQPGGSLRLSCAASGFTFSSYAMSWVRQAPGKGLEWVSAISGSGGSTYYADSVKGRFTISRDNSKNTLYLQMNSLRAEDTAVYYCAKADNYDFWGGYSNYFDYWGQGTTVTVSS
VL: EIVMTQSPATLSVSPGERATLSCTASQSVRNNLAWYQQKPGQPPRLLIYGASTRATGIPARFSGSRSGTEFTLTISSLQSEDFGVYYCQQYNNWPRTFGQGTKVEIK
notes: selected from a naive human scFv M13 phage library; About 28 kDa on Western blot; source: E. coli HB2151, IPTG-induced; total cell lysate, periplasmic fraction or cytoplasmic fraction
binding result: binds
